pIC50: −log10 of the molar value.
Target: beta-catenin in DLD1 TCF reporter cells (UniProt P35222)
Assay: cell-based or functional assay

beta-catenin in DLD1 TCF reporter cells, sequence (P35222 2-781 limits assumed): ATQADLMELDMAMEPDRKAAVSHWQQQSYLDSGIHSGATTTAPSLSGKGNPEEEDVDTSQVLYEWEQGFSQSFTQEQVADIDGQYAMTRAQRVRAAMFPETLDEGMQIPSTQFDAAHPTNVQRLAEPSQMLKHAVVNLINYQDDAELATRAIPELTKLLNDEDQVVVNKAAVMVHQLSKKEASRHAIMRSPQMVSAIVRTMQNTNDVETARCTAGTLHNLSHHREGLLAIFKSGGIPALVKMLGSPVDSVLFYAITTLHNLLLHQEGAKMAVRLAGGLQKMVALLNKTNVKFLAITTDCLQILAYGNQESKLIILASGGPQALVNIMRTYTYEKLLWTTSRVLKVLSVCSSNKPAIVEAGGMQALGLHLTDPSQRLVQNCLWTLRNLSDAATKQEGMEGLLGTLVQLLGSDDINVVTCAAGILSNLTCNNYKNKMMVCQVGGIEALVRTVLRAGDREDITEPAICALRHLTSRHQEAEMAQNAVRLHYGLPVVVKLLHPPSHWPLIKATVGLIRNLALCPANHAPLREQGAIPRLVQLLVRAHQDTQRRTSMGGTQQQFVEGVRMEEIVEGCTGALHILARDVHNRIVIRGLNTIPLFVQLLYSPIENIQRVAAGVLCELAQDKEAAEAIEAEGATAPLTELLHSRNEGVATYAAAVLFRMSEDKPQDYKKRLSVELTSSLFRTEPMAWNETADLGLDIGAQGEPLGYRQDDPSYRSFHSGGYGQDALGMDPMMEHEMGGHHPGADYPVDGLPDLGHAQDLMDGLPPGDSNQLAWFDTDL

beta-catenin TCF4 DLD1 cell reporter assay IC50 [µM]	Substance
9.8	C-1: Ac-PL3-Asp-Npg-B5-Asp-3COOHF-Ala-Ala-Phe-Leu-PyrS2-2F3MeF-BztA-Gln-NH2 (peptide)
> 20	I-566: Ac-PL3-Asp-Npg-B5-Asp-3COOHF-Aib-Ala-Phe-[2_6-naph]Cys-PyrS2-3Thi-BztA-Cys-Ala-NH2 (peptide)
> 20	I-567: Ac-PL3-Asp-Npg-B5-Asp-3COOHF-Aib-Ala-Phe-[3_3-biph]Cys-PyrS2-3Thi-BztA-Cys-Ala-NH2 (peptide)

Target: endogenous beta-catenin in cells (DLD1, HAP1 WT) (human)
Assay: cell-based or functional assay

endogenous beta-catenin in cells (DLD1, HAP1 WT) (human), sequence (P35222 2-781): as the sequence (P35222 2-781 limits assumed) above

AXIN2 expression in DLD1 cells, IC50 [µM]	SP5 expression in DLD1 cells, IC50 [µM]	Substance
9.3	9	Peptide A

Target: beta-catenin fused to HaloTag (NanoBRET acceptor construct), expressed in HEK293 cells (UniProt P35222)
Assay: NanoBRET in HEK293 cells, beta-catenin-HaloTag against TCF4-NanoLuc

beta-catenin fused to HaloTag (NanoBRET acceptor construct), expressed in HEK293 cells, sequence (P35222 whole entry, the tested form may be a part): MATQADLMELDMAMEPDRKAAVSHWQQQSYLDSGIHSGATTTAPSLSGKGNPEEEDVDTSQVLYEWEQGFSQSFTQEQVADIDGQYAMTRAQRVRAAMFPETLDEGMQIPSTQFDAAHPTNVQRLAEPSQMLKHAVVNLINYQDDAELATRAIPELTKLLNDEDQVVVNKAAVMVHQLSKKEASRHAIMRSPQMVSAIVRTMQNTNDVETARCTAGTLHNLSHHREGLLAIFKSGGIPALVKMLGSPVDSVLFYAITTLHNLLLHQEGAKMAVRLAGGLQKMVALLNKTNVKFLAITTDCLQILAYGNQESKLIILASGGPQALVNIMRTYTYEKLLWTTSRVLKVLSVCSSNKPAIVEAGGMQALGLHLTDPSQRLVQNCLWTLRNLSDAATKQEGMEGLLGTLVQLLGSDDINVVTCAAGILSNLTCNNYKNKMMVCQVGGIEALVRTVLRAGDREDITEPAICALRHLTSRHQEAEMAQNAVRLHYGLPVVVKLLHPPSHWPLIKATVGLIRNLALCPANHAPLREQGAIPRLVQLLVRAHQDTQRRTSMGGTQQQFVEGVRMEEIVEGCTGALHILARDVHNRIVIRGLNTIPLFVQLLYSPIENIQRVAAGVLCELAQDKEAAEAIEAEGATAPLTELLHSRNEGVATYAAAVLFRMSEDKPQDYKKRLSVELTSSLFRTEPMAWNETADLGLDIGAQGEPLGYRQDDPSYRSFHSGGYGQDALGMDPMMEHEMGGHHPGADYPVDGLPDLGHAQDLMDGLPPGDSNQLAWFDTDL

pIC50	Substance
5.52	Peptide A

Target: full-length B-Catenin (Uniprot ID P35222) (human)
Assay: competition fluorescence polarization

full-length B-Catenin (Uniprot ID P35222) (human), sequence (P35222 whole entry): as the sequence (P35222 whole entry, the tested form may be a part) above

Substance	pIC50
1PydoneAc-PL3-Asp-Npg-B5-Asp-3COOHF-Aib-Ala-Phe-Lys*3-PyrS2-3Thi-BztA-GlnR*3-Ala-NH2 (peptide)	> 7.30
1Pyrazole Ac-PL3-Asp-Npg-B5-Asp-3COOHF-Aib-Ala-Phe-Lys*3-PyrS2-3Thi-BztA-GlnR*3-Ala-NH2 (peptide)	> 7.30
3Py Ac-PL3-Asp-Npg-B5-Asp-3COOHF-Aib-Ala-Phe-Lys*3-PyrS2-3Thi-BztA-GlnR*3-Ala-NH2 (peptide)	> 7.30
3PyPrpc-PL3-Asp-Npg-B5-Asp-3COOHF-Aib-Ala-Phe-Lys*3-PyrS2-3Thi-BztA-GlnR*3-Ala-NH2 (peptide)	> 7.30

Continued, values first:

pIC50	Substance
> 7.30	4PyPrpc-PL3-Asp-Npg-B5-Asp-3COOHF-Aib-Ala-Phe-Lys*3-PyrS2-3Thi-BztA-GlnR*3-Ala-NH2 (I-1070) (peptide)
> 7.30	4PyPrpc-PL3-Asp-Npg-B5-Asp-3COOHF-Aib-Ala-Phe-Lys*3-PyrS2-3Thi-BztA-GlnR*3-Ala-NH2 (I-1071) (peptide)
> 7.30	5PymAc-PL3-Asp-Npg-B5-Asp-3COOHF-Aib-Ala-Phe-Lys*3-PyrS2-3Thi-BztA-GlnR*3-Ala-NH2 (peptide)
> 7.30	123TriAc-PL3-Asp-Npg-B5-Asp-3COOHF-Aib-Ala-Phe-Lys*3-PyrS2-3Thi-BztA-GlnR*3-Ala-NH2 (peptide)

Target: full-length beta-catenin (Uniprot ID P35222) (human)
Assay: competition fluorescence polarization

pIC50	Substance
6.66	I-376: Ac-PL3-Asp-Npg-B5-Asp-3COOHF-Aib-Ala-Phe-[oXyl]Cys-PyrS2-2F3MeF-BztA-Cys-Ala-NH2 (peptide)
7.03	I-377: Ac-PL3-Asp-Npg-B5-Asp-3COOHF-Aib-Ala-Phe-[pXyl]Cys-PyrS2-2F3MeF-BztA-Cys-Ala-NH2 (peptide)
7.24	I-566: Ac-PL3-Asp-Npg-B5-Asp-3COOHF-Aib-Ala-Phe-[2_6-naph]Cys-PyrS2-3Thi-BztA-Cys-Ala-NH2 (peptide)
6.92	I-567: Ac-PL3-Asp-Npg-B5-Asp-3COOHF-Aib-Ala-Phe-[3_3-biph]Cys-PyrS2-3Thi-BztA-Cys-Ala-NH2 (peptide)

Target: beta-catenin fused to HaloTag (Bcat-Halo NanoBRET construct), expressed in HEK293 cells (UniProt P35222)
Assay: NanoBRET Abs IC50 in HEK293 cells, beta-catenin-HaloTag against TCF4-NanoLuc

beta-catenin fused to HaloTag (Bcat-Halo NanoBRET construct), expressed in HEK293 cells, sequence (P35222 whole entry, the tested form may be a part): as above

Substance	pIC50
Ac-PL3-Asp-Npg-B5-Asp-2COOHF-Aib-Ala-Phe-Lys*3-PyrS2-2F3MeF-BztA-GlnR*3-Ala-NH2 (peptide)	> 5.52
Ac-PL3-Asp-Npg-B5-Asp-3F2COOHF-Aib-Ala-Phe-Lys*3-PyrS2-2F3MeF-BztA-GlnR*3-Ala-NH2 (peptide)	< 5.52
Ac-PL3-Asp-Npg-B5-Asp-Ala-Aib-Ala-Phe-Lys*3-PyrS2-2F3MeF-BztA-GlnR*3-Ala-NH2 (peptide)	< 5.52
Ac-PL3-Asp-Npg-B5-Asp-Asp-Aib-Ala-Phe-Lys*3-PyrS2-2F3MeF-BztA-GlnR*3-Ala-NH2 (peptide)	< 5.52
Ac-PL3-Asp-Npg-B5-Asp-Ser-Aib-Ala-Phe-Lys*3-PyrS2-2F3MeF-BztA-GlnR*3-Ala-NH2 (peptide)	< 5.52

The next lines start with the values.

pIC50	Substance
< 5.52	Ac-PL3-Asp-Npg-B5-Asp-4F3Me2COOHF-Aib-Ala-Phe-Lys*3-PyrS2-2F3MeF-BztA-GlnR*3-Ala-NH2 (peptide)
> 5.52	Ac-PL3-Asp-Npg-B5-Asp-4F3Me3COOHF-Aib-Ala-Phe-Lys*3-PyrS2-2F3MeF-BztA-GlnR*3-Ala-NH2 (peptide)
< 5.52	Ac-PL3-Asp-Npg-B5-Asp-5F3Me2COOHF-Aib-Ala-Phe-Lys*3-PyrS2-2F3MeF-BztA-GlnR*3-Ala-NH2 (peptide)
< 5.52	Ac-PL3-Asp-Npg-B5-Asp-Asn-Aib-Ala-Phe-Lys*3-PyrS2-2F3MeF-BztA-GlnR*3-Ala-NH2 (peptide)
< 5.52	Ac-PL3-Asp-Npg-B5-Asp-Gln-Aib-Ala-Phe-Lys*3-PyrS2-2F3MeF-BztA-GlnR*3-Ala-NH2 (peptide)
< 5.52	Ac-PL3-Asp-Npg-B5-Asp-Glu-Aib-Ala-Phe-Lys*3-PyrS2-2F3MeF-BztA-GlnR*3-Ala-NH2 (peptide)
< 5.52	Ac-PL3-Asp-Npg-B5-Asp-aThr-Aib-Ala-Phe-Lys*3-PyrS2-2F3MeF-BztA-GlnR*3-Ala-NH2 (peptide)

Target: full-length B-Catenin (Uniprot ID P35222) (human)
Assay: competition fluorescence polarization, displacement of 5FAM-TCF4

pIC50	Substance
> 7.30	Ac-PL3-Asp-Npg-B5-Asp-5F3Me3COOHF-Aib-Ala-Phe-Lys*3-PyrS2-2F3MeF-BztA-GlnR*3-Ala-NH2 (peptide)
> 7.30	Ac-PL3-Asp-Npg-B5-Asp-dGlu-Aib-Ala-Phe-Lys*3-PyrS2-2F3MeF-BztA-GlnR*3-Ala-NH2 (peptide)
